{"source": "patent US20200308223A1", "about": "(IMMUNWORK, published 2020)", "target": "T1, human CD19 (human, UniProt P15391 20-556)", "T1 construct": "whole, on cells; also called CD19 on Raji cells; CD19 on Ramos cells", "T1 sequence (looked up)": "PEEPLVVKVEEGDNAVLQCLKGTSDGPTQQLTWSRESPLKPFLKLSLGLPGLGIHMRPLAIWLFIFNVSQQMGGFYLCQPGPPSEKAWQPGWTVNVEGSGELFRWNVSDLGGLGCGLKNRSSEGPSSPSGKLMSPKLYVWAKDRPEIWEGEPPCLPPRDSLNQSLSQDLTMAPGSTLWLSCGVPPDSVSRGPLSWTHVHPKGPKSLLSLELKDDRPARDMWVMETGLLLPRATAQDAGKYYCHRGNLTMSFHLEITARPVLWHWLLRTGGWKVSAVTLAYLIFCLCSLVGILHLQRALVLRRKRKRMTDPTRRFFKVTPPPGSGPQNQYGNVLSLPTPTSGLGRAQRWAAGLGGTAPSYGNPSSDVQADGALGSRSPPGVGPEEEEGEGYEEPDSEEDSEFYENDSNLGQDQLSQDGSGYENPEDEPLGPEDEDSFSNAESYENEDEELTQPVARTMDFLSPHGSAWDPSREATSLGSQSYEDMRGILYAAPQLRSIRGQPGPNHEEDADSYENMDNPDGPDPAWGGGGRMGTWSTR", "assay": "flow cytometry (FACS) on CD19-expressing Raji cells, 0.001 µg/ml construct, FITC goat anti-human IgG.Fc detection", "method": "The assay was performed by incubating 1×10⁶CD19-expressing Raji cells with 0.001 μg/ml of each construct in PBS, 1% BSA on ice for 30 minutes, using anti-CD19 antibody (RB4v1.2), (scFv α CD19)-Fc-MBM-1 X 2 DOTA bundles and (scFv α CD19)-Fc-MBM-3 X 2 DOTA bundles as positive controls. The anti-HER2 antibody (trastuzumab) was used as a negative control. The staining of cells was analyzed by FACS (FACSCanto II; BD Biosciences) using FITC-conjugated goat anti-human IgG.Fc (diluted 1:200 in PBS/BSA) (Caltag, Buckingham, UK) at 4° C. for 20 minutes in the dark.", "data": [{"binder": "stabilized (scFv α CD19)-Fc-MBM-3 X 2 DOTA bundles (Fc fusion, cysteine residue of the C-terminal metal binding motif GCGGHA conjugated with one Mal-Peptide 2-DOTA bundle (three DOTA on a maleimido-ethyl peptide core), also called recombinant 2-chain (scFv α CD19)-Fc-MBM-3 X 2 DOTA bundles; 2-chain (VL-VH scFv α CD19)-Fc-MBM-3 conjugated with two DOTA bundles) EIVLTQSPAIMSASPGERVTMTCSASSGVNYMHWYQQKPGTSPRRWIYDTSKLASGVPARFSGSGSGTDYSLTISSMEPEDAATYYCHQRGSYTFGGGTKLEIKRGSTSGSGKPGSGEGSTKGQVQLVQPGAEVVKPGASVKLSCKTSGYTFTSNWMHWVKQAPGQGLEWIGEIDPSDSYTNYNQNFQGKAKLTVDKSTSTAYMEVSSLRSDDTAVYYCARGSNPYYYAMDYWGQGTSVTVSSGGGASDKTHTCPPCPAPELLGGPSVFLFPPKPKDTLMISRTPEVTCVVVDVSHEDPEVKFNWYVDGVEVHNAKTKPREEQYNSTYRVVSVLTVLHQDWLNGKDYKCKVSNKALPAPIEKTISKAKGQPREPQVYTLPPSRDELTRNQVSLTCLVKGFYPSDIAVEWESNGQPENNYKTTPPVLDSDGSFFLYSKLTVDKSRWQQGNVFSCSVMHEALHNHYTQKSLSLSPGGGGGCGGHA", "values": [{"measurement": "binding result", "result": "binds"}]}]}
